From patent publication US20240218067A1 (ONCOC4, published 2024) come the findings set out here.

A word on the Kd: it is the equilibrium constant for the complex coming apart. Usually EC50 (read off the curve) stands for the concentration needed to bring the measured effect to its halfway point. By koff is commonly meant a measure of how fast the partners let go of each other. Lower therefore signals slow dissociation. As a reminder, the kon is a measure of how fast the partners come together. Low readings indicate slow association, high ones fast association. By EC50 is commonly meant the concentration that produces a half-maximal response. Read a high EC50 as a need for much substance.

Assay [1] deals with T1, human Siglec-10 on the cell surface (human, UniProt Q96LC7 17-697).
T1 sequence (looked up): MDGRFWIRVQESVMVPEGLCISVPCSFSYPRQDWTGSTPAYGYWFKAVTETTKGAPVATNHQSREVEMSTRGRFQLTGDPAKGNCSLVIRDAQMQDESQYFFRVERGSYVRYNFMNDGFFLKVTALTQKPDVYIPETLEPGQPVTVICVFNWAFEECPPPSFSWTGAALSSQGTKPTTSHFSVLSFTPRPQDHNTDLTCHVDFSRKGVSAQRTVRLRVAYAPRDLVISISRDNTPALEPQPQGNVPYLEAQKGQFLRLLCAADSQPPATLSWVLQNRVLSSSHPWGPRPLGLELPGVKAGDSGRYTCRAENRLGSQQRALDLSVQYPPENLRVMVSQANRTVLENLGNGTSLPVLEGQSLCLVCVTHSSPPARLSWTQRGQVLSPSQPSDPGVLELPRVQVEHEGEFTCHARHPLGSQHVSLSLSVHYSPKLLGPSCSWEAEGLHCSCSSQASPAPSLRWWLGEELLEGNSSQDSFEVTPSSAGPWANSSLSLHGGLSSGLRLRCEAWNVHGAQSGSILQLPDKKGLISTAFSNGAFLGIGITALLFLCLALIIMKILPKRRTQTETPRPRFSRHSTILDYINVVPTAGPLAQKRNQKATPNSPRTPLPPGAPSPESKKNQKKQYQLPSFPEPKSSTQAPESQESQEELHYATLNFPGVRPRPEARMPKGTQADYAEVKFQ
Briefly: cell-based or functional assay.

For assay [2], the target named is human Siglec-10 extracellular domain recombinant protein (His or Fc tag) (human) (UniProt Q96LC7). Briefly: ELISA, Siglec protein coated, biotinylated ONC-841, avidin-HRP. A general note: In an ELISA, binding on a coated surface is turned into a signal by an enzyme label.
Assay [3] has the same target. Briefly: ELISA: Siglec-10 His coated, biotinylated ONC-841, avidin-HRP.
The target in assay [4] is cynomolgus Siglec-10 on the cell surface (cynomolgus). Briefly: flow cytometry, cynomolgus PBMC, CD14hi monocytes, without excess hIgG. A general note: A flow cytometer gives signals particle by particle.
cynomolgus Siglec-10 on the cell surface (cynomolgus), sequence (chain, as listed by the source): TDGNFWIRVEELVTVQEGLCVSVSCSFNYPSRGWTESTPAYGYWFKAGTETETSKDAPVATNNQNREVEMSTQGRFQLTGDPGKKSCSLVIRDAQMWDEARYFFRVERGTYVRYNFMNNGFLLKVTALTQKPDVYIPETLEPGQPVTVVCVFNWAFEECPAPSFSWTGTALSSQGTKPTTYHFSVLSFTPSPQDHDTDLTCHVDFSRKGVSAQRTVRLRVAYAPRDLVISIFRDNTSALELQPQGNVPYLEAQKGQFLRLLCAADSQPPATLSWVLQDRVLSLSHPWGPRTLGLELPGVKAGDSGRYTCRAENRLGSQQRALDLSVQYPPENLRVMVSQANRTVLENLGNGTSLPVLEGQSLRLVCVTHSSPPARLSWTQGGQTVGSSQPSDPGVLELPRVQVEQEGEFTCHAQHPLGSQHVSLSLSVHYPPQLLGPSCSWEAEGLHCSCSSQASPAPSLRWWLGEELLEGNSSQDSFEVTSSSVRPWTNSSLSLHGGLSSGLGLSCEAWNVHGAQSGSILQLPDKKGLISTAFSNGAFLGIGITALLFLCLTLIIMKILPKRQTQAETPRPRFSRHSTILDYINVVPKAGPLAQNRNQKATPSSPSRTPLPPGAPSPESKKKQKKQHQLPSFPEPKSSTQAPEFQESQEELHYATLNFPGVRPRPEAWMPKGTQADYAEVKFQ
Assay [5] has as its target T1, human Siglec-10 on the cell surface. Briefly: flow cytometry, human PBMC, CD14hi monocytes, without excess hIgG; FMO median 1244.
The target is the same in assay [6]. Briefly: flow cytometry on live expi293 cells transfected with human Siglec-10; FMO median 14075.
Assay [7] concerns the target recombinant His-tagged human Siglec-10 (ACROBiosystems) (human) (UniProt Q96LC7). Briefly: ELISA: His-tagged human Siglec-10 coated, ONC-841 detected with goat anti-human antibody.
The target in assay [8] is rhesus Siglec-10 on expi293 cells (rhesus) (UniProt F7GW74). Briefly: flow cytometry on live expi293 cells transfected with rhesus Siglec-10; FMO median 13039.
rhesus Siglec-10 on expi293 cells (rhesus), sequence (F7GW74 entry or part of it): as the sequence (chain, as listed by the source) above, with N4S, E11K, T14M, R306H, R486G, E568D, F645S counted along it
Assay [9] addresses T1, human Siglec-10 on the cell surface. Briefly: flow cytometry, human PBMC, B cells, fluorescently labeled ONC-841 (upper left quadrant).
Assay [10] addresses marmoset Siglec-10 on expi293 cells (marmoset) (UniProt F6WZ94). Briefly: flow cytometry on live expi293 cells transfected with marmoset Siglec-10; FMO median 13762.
Assay [11] concerns the target T1, human Siglec-10 on the cell surface. Briefly: flow cytometry, human PBMC, monocytes, fluorescently labeled ONC-841 (upper left quadrant).
The target of assay [12] is cynomolgus Siglec-10 on the cell surface (cynomolgus). Briefly: flow cytometry on live expi293 cells transfected with cynomolgus Siglec-10; FMO median 13824.
The target in assay [13] is T2, Siglec-10 (Biacore analysis) (UniProt Q96LC7 17-546, limits assumed).
T2 sequence (looked up): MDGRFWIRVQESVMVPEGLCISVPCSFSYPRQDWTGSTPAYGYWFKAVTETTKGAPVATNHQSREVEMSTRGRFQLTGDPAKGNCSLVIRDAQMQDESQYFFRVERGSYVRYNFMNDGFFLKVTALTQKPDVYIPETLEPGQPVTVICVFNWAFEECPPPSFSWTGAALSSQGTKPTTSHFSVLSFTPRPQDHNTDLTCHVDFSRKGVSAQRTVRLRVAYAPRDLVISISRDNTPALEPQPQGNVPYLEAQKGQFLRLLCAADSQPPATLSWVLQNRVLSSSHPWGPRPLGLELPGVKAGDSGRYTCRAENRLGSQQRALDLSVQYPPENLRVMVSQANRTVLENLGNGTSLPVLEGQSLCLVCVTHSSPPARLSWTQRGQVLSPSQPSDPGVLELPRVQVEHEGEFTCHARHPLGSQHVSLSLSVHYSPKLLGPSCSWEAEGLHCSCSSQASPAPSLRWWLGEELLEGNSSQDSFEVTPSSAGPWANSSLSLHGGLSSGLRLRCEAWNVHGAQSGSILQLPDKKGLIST
Briefly: Biacore. In general terms: Surface plasmon resonance follows binding to a sensor surface in real time, without labels.

The target of assay [14] is T1, human Siglec-10 on the cell surface. Briefly: flow cytometry, Jurkat cells expressing human Siglec-10.
Assay [15] deals with T2, Siglec-10 (Biacore analysis). Briefly: Biacore (data from a separate experiment); data from a separate experiment.

marmoset Siglec-10 on expi293 cells (marmoset), sequence (F6WZ94 entry or part of it): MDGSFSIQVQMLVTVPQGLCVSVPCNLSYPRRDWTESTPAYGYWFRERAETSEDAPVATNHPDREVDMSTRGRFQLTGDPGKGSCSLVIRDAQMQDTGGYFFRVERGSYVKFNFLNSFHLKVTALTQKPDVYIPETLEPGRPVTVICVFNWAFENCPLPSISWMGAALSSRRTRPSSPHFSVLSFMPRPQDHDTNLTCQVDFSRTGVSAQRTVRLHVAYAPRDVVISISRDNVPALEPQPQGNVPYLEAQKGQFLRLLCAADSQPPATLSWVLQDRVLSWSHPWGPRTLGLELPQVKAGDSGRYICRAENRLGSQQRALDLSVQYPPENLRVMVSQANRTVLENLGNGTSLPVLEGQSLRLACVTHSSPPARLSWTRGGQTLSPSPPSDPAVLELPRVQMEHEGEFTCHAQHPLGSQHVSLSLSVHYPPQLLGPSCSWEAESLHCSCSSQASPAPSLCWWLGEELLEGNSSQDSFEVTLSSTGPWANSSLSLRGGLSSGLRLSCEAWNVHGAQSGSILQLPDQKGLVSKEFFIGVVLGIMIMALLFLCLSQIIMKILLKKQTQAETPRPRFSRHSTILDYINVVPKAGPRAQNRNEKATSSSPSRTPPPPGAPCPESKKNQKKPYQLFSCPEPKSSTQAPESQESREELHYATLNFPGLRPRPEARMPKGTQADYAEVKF

With ONC-841 (antibody), in assay [1], the EC50, ADCC reporter activity of anti-CD20 against Raji cells came to 0.5 µg/mL. Also, in assay [1], the EC50, ADCC reporter activity of cetuximab against B16 cells expressing human EGFR turned out to be 0.3 µg/mL. The IC50 (so in the source), ADCC reporter activity of ONC-392 against CTLA-4 expressing CHO cells in assay [1] was 0.08 µg/mL. The Kd in [2] was 0.0225 µg/mL. Also, the EC50 (read off the curve) amounted to 0.02 µg/mL in [3] and 0.009 µg/mL in [7]. The Median : Comp-Alexa Fluor 488-A in [4] was found to be 1770; in [5], 7250. Further, the Median : Comp-APC-A in assay [6] came to 64200; in assay [8], 13100; in [10], 14200; in assay [12] it was 14500. The % positive cells in assay [9] is 51%; in assay [11], 79%.

B1: humanized 31F11 clone #21 (antibody, V domains shown)
VH: QVTLKESGPALVKPTQTLTLTCTFSGFSLSTSGMGLSWIRQPPGKALEWLAHIYWDDDKRYNPSLKSRLTISKDTSKNQVVLTMTNMDPVDTATYYCVRGLYGNWFFDVWGQGTTVTVSS
VL: DIVMTQSPATLSVSPGERATLSCKASQNVGTAVAWYQQKPGQAPRLLIYSASNRYTGVPARFSGSGSGTEFTLTISSLQSEDFAVYFCQQYSSYPLTFGGGTKVEIK
notes: also called hu-VHv1VLv2
With B1, in assay [13], the koff was determined as 0.000589 s⁻¹ and the kon worked out at 272000 M⁻¹ s⁻¹. For the same molecule, the “ADCC EC50” value in assay [1] is 0.153 µg/mL. The midpoint of the response in [14], the EC50, lay at 0.242 µg/mL. In addition, binding in assay [15] was characterised by a dissociation constant (Kd) of 2.17 nM.

B2: humanized 31F11 clone #22 (antibody, V domains shown)
VH: QVTLKESGPALVKPTQTLTLTCTFSGFSLSTSGMGLSWIRQPPGKALEWLAHIYWDDDKRYNPSLKSRLTISKDTSKNQVVLTMTNMDPVDTATYYCVRGLYGNWFFDVWGAGTTVTVSS
VL: DIVMTQSPATLSVSPGERATLSCKASQNVGTAVAWYQQKPGQAPRLLIYSASNRYTGVPARFSGSGSGTEFTLTISSLQSEDFAVYFCQQYSSYPLTFGGGTKVEIK
notes: also called hu-VHv2VLv2
In [13], B2 displayed a dissociation constant (Kd) of 1.23 nM, a koff of 0.000202 s⁻¹ and a kon of 164000 M⁻¹ s⁻¹. Besides, in assay [1], the “ADCC EC50” value was determined as 0.266 µg/mL. Further, in assay [14], the EC50 worked out at 0.237 µg/mL.

B3: humanized 31F11 clone #23 (antibody, V domains shown)
VH: QVTLKESGPALVKPTQTLTLTCTFSGFSLSTSGMGLSWIRQPPGKALEWLAHIYWDDDKRYNPSLKSRLTISKDTSKNQVVLTMTNMDPVDTATYYCARGLYGNWFFDVWGQGTTVTVSS
VL: DIVMTQSPATLSVSPGERATLSCKASQNVGTAVAWYQQKPGQAPRLLIYSASNRYTGVPARFSGSGSGTEFTLTISSLQSEDFAVYFCQQYSSYPLTFGGGTKVEIK
In assay [13], B3 registered a Kd of 1.5 nM, a dissociation rate constant (koff) of 0.000197 s⁻¹ and an on-rate (kon) of 131000 M⁻¹ s⁻¹. Moreover, the “ADCC EC50” value in assay [1] is 0.342 µg/mL. In [14], this molecule showed an EC50 of 0.237 µg/mL.
